In the supplement of paper PMC9942255:

Tested on: Bacillus subtilis DB104 (SP-AmyQ fusion secretion)
Test: AmyQ secretion efficiency, weighted average sort bin (1 = best secretion, 10 = worst) (bin number (weighted average, 1-10)); higher = lower secretion efficiency
Procedure, shortened: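 The secretion score gives the average bin number weighted by read frequency and normalised to beads per bin, with low-abundance sequences excluded. Bins were 10 equally populated green/red fluorescence ratio fractions of occupied ~65 nL alginate beads, sorted by large-particle flow cytometry. The beads held fluorescein-starch and about 0.3 cells each of an amyE-integrated B. subtilis DB104 library fusing designed signal peptides to mature AmyQ, and they were grown about 13 h at room temperature and stained with nile red before sorting and Illumina sequencing.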

Q: For MLKKKWMVGLLAGCLAAGGFSYNAFNTEN, which AmyQ secretion efficiency is on record?
A: 6.56

Q: For MKKLSLGVASAALGLALVGGGTWAAFN, which AmyQ secretion efficiency is on record?
A: 6

Q: With MKLAKRVSALTPSTTLAITYKAKEL as the sequence, how does the AmyQ secretion efficiency read?
A: 6.96

Q: Which AmyQ secretion efficiency does the source give for MKKKLAAGLTASAIVGTTLVDEPAEAATI here?
A: 5.66

Q: For MKIRKILLSSALSFGMLISAVPCLAAGT, which AmyQ secretion efficiency is on record?
A: 2

Q: For MKKKQVMLALTAAAGLGLTALHSAPACKAAPL, which AmyQ secretion efficiency is on record?
A: 2.29

Q: For MKIRKILLSSALSFGMLISAVPVLAAGT, which AmyQ secretion efficiency is on record?
A: 3.66

Q: For MKRLKVSLRVWMVFLMNWVTPDRKTAAAAVY, which AmyQ secretion efficiency is on record?
A: 6.85

Q: How did the AmyQ secretion efficiency turn out when MKKKSTVFLSVVLVTTVFLVKQQESVAQAKQL was run?
A: 2.06

Q: How did the AmyQ secretion efficiency turn out when MKKKQVMLALTAAAGLGLTALHSAPAVKAAPL was run?
A: 1.99

Q: How did the AmyQ secretion efficiency turn out when MKRMIVRMTLPLLIVCLAFSKKSASARAASE was run?
A: 7.39

Q: With MKLAKRVSALTPSTTLAITRKAKEL as the sequence, how does the AmyQ secretion efficiency read?
A: 7.25

Q: For MKKAAAVLLSLGLVFGFSYGAGHVAEAAKK, which AmyQ secretion efficiency is on record?
A: 5.64

Q: With MKKKQVMLALTAAAGLGLTALHSAPAAKADDD as the sequence, how does the AmyQ secretion efficiency read?
A: 5.2

Q: MKKLCVMMLLFSAIASFPVSAQAKDQ was tested. Which AmyQ secretion efficiency did it give?
A: 2.86

Q: How did the AmyQ secretion efficiency turn out when MKKKQVLALTAAAGLGLTALHSAPAAKAAPL was run?
A: 2.4

Q: How did the AmyQ secretion efficiency turn out when MKRRRRKLLSTLLIGIMLLTFAPSAFAKQD was run?
A: 1.81

Q: MKKKLAAGLTASAIVGTTLVVTPTAAEAATI was tested. Which AmyQ secretion efficiency did it give?
A: 2.99

Q: With MRGKSAVLLSLIMLIAGFLISFPFQM as the sequence, how does the AmyQ secretion efficiency read?
A: 5.95

Q: How did the AmyQ secretion efficiency turn out when MKTKTLFIFSAILTLSIFAPNECFAQTA was run?
A: 2.92

Q: How did the AmyQ secretion efficiency turn out when MKSKWMSGLLLVAVGFSFTQVMVHAGRR was run?
A: 7.76

Q: With MKLSVKIAGVLTVAAAAMEEKMYATAKGN as the sequence, how does the AmyQ secretion efficiency read?
A: 7.66

Q: For MLMLCLWFTVFSLFLVLLPGKALGAVD, which AmyQ secretion efficiency is on record?
A: 5.08

Q: MLCVMMLLFSAIASFPVSAQAAKK was tested. Which AmyQ secretion efficiency did it give?
A: 6.38

Q: MLCVMMLLFSAIASFPVSWQAKDQ was tested. Which AmyQ secretion efficiency did it give?
A: 6.99

Q: Which AmyQ secretion efficiency does the source give for MKKLLAAGIIGLLTVRRRKKKSFAAEK here?
A: 7.21

Q: How did the AmyQ secretion efficiency turn out when MNLRKILLSSALSLGMLVSAAPFLATSS was run?
A: 6.67

Q: For MMGRKVLTGSVLSLGLLVSASPAFATSP, which AmyQ secretion efficiency is on record?
A: 2.07

Q: Which AmyQ secretion efficiency does the source give for MRSYIKVLTMCFLGLILFVPTALQDNS here?
A: 6.11

Q: For MKWMCSICCAAVLLAGGALQAEAV, which AmyQ secretion efficiency is on record?
A: 2.66

Q: With MKLKSKYYKGCRSTSTVFVATTIANAPTH as the sequence, how does the AmyQ secretion efficiency read?
A: 7.35

Q: Which AmyQ secretion efficiency does the source give for MKRQCYWTYQSSRQLVLLPGKALGAVD here?
A: 8.11

Q: Which AmyQ secretion efficiency does the source give for MTMLRKIIGWILLLCIIDDDEEDVIASGKEV here?
A: 5.3

Q: How did the AmyQ secretion efficiency turn out when MSFVMNIIIALVTILMLSVTSLFALQPSAKAAEH was run?
A: 2.71

Q: Which AmyQ secretion efficiency does the source give for MKKRLIAPMLLSAASLAFFAMSGSAQFAAY here?
A: 6.43

Q: For MRKKRVITCVMAASLTLGSLLPAGYLSAKED, which AmyQ secretion efficiency is on record?
A: 4.34

Q: MRSYIKVLTMCFLGLILFVFSSLPTALADNS was tested. Which AmyQ secretion efficiency did it give?
A: 2.22

Q: Which AmyQ secretion efficiency does the source give for MKKLIMMTGLLFGLTSPAFAAEK here?
A: 2.43

Q: MKRLLVSLRVWMVFLMNWVTPDRKTSAAAVY was tested. Which AmyQ secretion efficiency did it give?
A: 5.14

Q: MKRIRIPMTLALGAALTIAPLSFLSAEEN was tested. Which AmyQ secretion efficiency did it give?
A: 4.62

Q: MKLRKVLTGSVLSLVSASPAFATSP was tested. Which AmyQ secretion efficiency did it give?
A: 3.59

Q: MHQIRAAGAVCLAVVLIAGCRFNEDQHQAEGENT was tested. Which AmyQ secretion efficiency did it give?
A: 6.4

Q: How did the AmyQ secretion efficiency turn out when MKKRLIGFLVLVPALIMSGITLIEANDD was run?
A: 4.89

Q: How did the AmyQ secretion efficiency turn out when MKVLLSALLLLLFAFEPSLSGKKL was run?
A: 6.45

Q: For MKRFSTAYLLLGILCSAAVFLIGAPSRALGAPD, which AmyQ secretion efficiency is on record?
A: 2.52

Q: Which AmyQ secretion efficiency does the source give for MKSKGSIMSCLILFSFTITTFINTETISAFSN here?
A: 3.29

Q: For MLKKIALTLCPAIVGSLLFFTAPHSAHVS, which AmyQ secretion efficiency is on record?
A: 5.59

Q: How did the AmyQ secretion efficiency turn out when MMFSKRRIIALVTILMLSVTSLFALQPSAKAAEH was run?
A: 1.68

Q: MKKKQVMLALTAAAGLGLTALHSAPARKAAPL was tested. Which AmyQ secretion efficiency did it give?
A: 5.26

Q: MNLWMRKTLVVLFTIVTFGLVSPPAALMADKP was tested. Which AmyQ secretion efficiency did it give?
A: 2.15

Q: With MPSCKQLIVCSLAAILLLIPSVSFAADS as the sequence, how does the AmyQ secretion efficiency read?
A: 3.5

Q: MKSKWMSGLLLVAVGFSFTQVMHHAGET was tested. Which AmyQ secretion efficiency did it give?
A: 6.66

Q: How did the AmyQ secretion efficiency turn out when MKVLLSALLLLLFAFEPSVSGKKL was run?
A: 6.17
